Laboratory results taken from patent US20190248900A1 (Y BIOLOGICS, published 2019).

B1: PD1-48A9 (antibody, V domains shown)
VH: QMQLVQSGAEVKKPGSSVKVSCKASGDTFTRYIINWVRQAPGQGLEWMGRVIPTLGLTTYAQNFQDTVTIIADKSTNTAYMELKNLRSEDTAVYYCARGYGSGAFDIWGQGTMITVSS
VL: DIVMTQTPLSLPVTPGEPASISCRSSQSLLDSHDGNTYLDWYLQKPGQSPQLLIYTLSHRASGVPDRFSGSGSGTDFTLKISRVEAEDVGLYYCMQRIDFPYTFGQGTKVEIK
notes: scFv-phage in the screening ELISA; whole IgG in the other assays
B2: PD1-42G4 (antibody, V domains shown)
VH: QVQLVESGGGLVKPGGSLRLSCAASGFTFSDYYMSWIRQAPGKGLEWVSDISASGNSIYYADSVKRRFTISRDNSKNSLYLQMNSLRAEDTAVYYCVTSGPFGEFRNWGLGTLVTVSS
VL: DIQMTQSPSSLSASVGDRVTTTCRASQGISSYLAWYQQKPGKAPKLLIYAASTLQSGVPSRFSGSGSGTDFTLTISSLQPEDFATYFCQQSYTSPRTFGQGTKLDIK
notes: scFv-phage in the screening ELISA; later whole IgG
B3: PD1-45F1 (antibody, V domains shown)
VH: QVQLVQSGAEVKKPGASVKLSCKASGYTFNSYYVHWVRQAPGQGLEWMGIINPSDGSATYAQKFQGRVTMTSDTSTSSVYMELSSLRSEDTAVYYCARDGNYYDSRGYYYDTFDMWGQGTLITVSS
VL: SYELTQDPAVSVALGQTVRITCQGDSLRTYYASWYQQKPGQAPILVIYGKNNRPSGIPDRFSGSSSGNTASLTITAAQAEDEADYYCNSRDSSGKSLVFGGGTKLTVL
notes: as for B2
B4: PD1-44B5 (antibody, V domains shown)
VH: QVQLVESGGGVVQPGRSLRLSCAASGFTFSSYAMHWVRQAPGKGLEWVAVISYDGSNKYYADSVKGRFTISRDNSKNTLYLQMNSLRAEDTAVYYCARLMHTFSVQYFLDVWGQGTTVTVSS
VL: QFVLTQSPSASGTPGQNIVISCSASTFNIGTTTVNWYQRLPGTAPKLLIYNYDQRPSGVPDRFSGSKSGTSASLAISGLQSEDEADYYCAAWDDSLNAWLFGGGTKLTVL
notes: as for B2
B5: PD1-45F4 (antibody, V domains shown)
VH: QMQLVESGGGLVQPGRSLRLSCAASGFTFDDYAMHWVRQAPGQGLEWVSGISWNSNNIKYADSVKGRFTISRDNSKNSLYLQMNSLRAEDTAVYYCARGALTPLDVWGQGTPVTVSS
VL: SYELTQAPSLSVSPGQTANIICSGDNLRTKYVSWYQQKPGQSPLLVIYQDTRRPSGIPARFSGSNSGNTATLTISGTQTRDESTYYCMTWDVDTTSMIFGGGTKLTVL
notes: as for B2
B6: PD1-49B9 (antibody, V domains shown)
VH: QMQLVESGGGLVQPGRSLRLSCAASGFTFEDYAMHWVRQPPGKGLEWVSSISWNSHNIAYADSVKGRFTISRDNSKNSLYLQMNSLRAEDTAVYYCSTSGLGVHAWGQGTMVTVSS
VL: QSALTQPPSASGSPGQSVTISCTGTSSDVGGYNYVSWYQQHPGKAPKLMIYEVSKRPSGVPDRFSGSKSGNTASLTVSGLQPEDEADYYCSSFARNSNYVFGTGTKVTVL
notes: as for B2

Biological target: human PD-1 (NM_005018.2) over-expressed on cells (human, UniProt Q15116 25-288)
Assay: cell-based or functional assay

Sequence of human PD-1 (NM_005018.2) over-expressed on cells (Q15116 25-288): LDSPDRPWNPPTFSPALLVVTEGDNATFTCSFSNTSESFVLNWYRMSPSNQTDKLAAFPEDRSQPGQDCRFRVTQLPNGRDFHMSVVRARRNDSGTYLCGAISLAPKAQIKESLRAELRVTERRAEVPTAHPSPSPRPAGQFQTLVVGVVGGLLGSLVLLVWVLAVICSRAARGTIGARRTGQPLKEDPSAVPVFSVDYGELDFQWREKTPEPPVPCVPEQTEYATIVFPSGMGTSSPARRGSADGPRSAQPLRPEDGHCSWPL

| Binder | EC50 [nM], PD1/PD-L1 blockade bioassay [nM] |
| --- | --- |
| B1 | 8.64 |

Biological target: T1, M2
T1 construct: also called PD1 mutant M2
Assay: scFv-phage ELISA

| Binder | OD490 |
| --- | --- |
| B2 | 0.6 |
| B1 | 0.3 |
| B3 | 3.8 |
| B4 | 3.7 |
| B5 | 2.9 |
| B6 | 3.9 |

Biological target: T2, M2-1
T2 construct: also called PD1 mutant M2-1
Assay: scFv-phage ELISA

| Binder | OD490 |
| --- | --- |
| B2 | 0.6 |
| B1 | 3.8 |
| B3 | 3.9 |
| B4 | 3.6 |
| B5 | 3 |
| B6 | 3.8 |

Biological target: T3, M2-2
T3 construct: also called PD1 mutant M2-2
Assay: scFv-phage ELISA

| Binder | OD490 |
| --- | --- |
| B2 | 3 |
| B1 | 3.9 |
| B3 | 4 |
| B4 | 3.7 |
| B5 | 2.5 |
| B6 | 3.9 |

Biological target: T4, M3
T4 construct: also called PD1 mutant M3
Assay: scFv-phage ELISA

| Binder | OD490 |
| --- | --- |
| B2 | 2 |
| B1 | 2 |
| B3 | 3.8 |
| B4 | 3.7 |
| B5 | 3.7 |
| B6 | 3.9 |

Biological target: T5, M4
T5 construct: also called PD1 mutant M4
Assay: scFv-phage ELISA

| Binder | OD490 |
| --- | --- |
| B2 | 1.9 |
| B1 | 3.9 |
| B3 | 3.9 |
| B4 | 3.6 |
| B5 | 2.7 |
| B6 | 3.8 |

Biological target: T6, M11
T6 construct: also called PD1 mutant M11
Assay: scFv-phage ELISA

| Binder | OD490 |
| --- | --- |
| B2 | 1.7 |
| B1 | 0.3 |
| B3 | 3.8 |
| B4 | 3.8 |
| B5 | 0.3 |
| B6 | 1.4 |

Biological target: T7, M5
T7 construct: also called PD1 mutant M5
Assay: scFv-phage ELISA

| Binder | OD490 |
| --- | --- |
| B2 | 1.6 |
| B1 | 1.3 |
| B3 | 3.8 |
| B4 | 3.7 |
| B5 | 0.1 |
| B6 | 3.9 |

Biological target: T8, M5-1
T8 construct: also called PD1 mutant M5-1
Assay: scFv-phage ELISA

| Binder | OD490 |
| --- | --- |
| B2 | 1.9 |
| B1 | 0.6 |
| B3 | 3.9 |
| B4 | 3.7 |
| B5 | 0.1 |
| B6 | 3.9 |

Biological target: T9, M5-2
T9 construct: also called PD1 mutant M5-2
Assay: scFv-phage ELISA

| Binder | OD490 |
| --- | --- |
| B2 | 3.5 |
| B1 | 3.9 |
| B3 | 3.9 |
| B4 | 3.8 |
| B5 | 3.1 |
| B6 | 4 |

Biological target: T10, M6
T10 construct: also called PD1 mutant M6
Assay: scFv-phage ELISA

| Binder | OD490 |
| --- | --- |
| B2 | 3.3 |
| B1 | 3.9 |
| B3 | 4 |
| B4 | 3.7 |
| B5 | 3.7 |
| B6 | 3.9 |

Biological target: T11, M12
T11 construct: also called PD1 mutant M12
Assay: scFv-phage ELISA

| Binder | OD490 |
| --- | --- |
| B2 | 2.7 |
| B1 | 3.9 |
| B3 | 0.4 |
| B4 | 3.6 |
| B5 | 3.7 |
| B6 | 3.9 |

Biological target: T12, M13
T12 construct: also called PD1 mutant M13
Assay: scFv-phage ELISA

| Binder | OD490 |
| --- | --- |
| B2 | 3.7 |
| B1 | 4 |
| B3 | 2.2 |
| B4 | 3.7 |
| B5 | 3.5 |
| B6 | 3.9 |

Biological target: T13, M14
T13 construct: also called PD1 mutant M14
Assay: scFv-phage ELISA

| Binder | OD490 |
| --- | --- |
| B2 | 3.7 |
| B1 | 4 |
| B3 | 3.8 |
| B4 | 3.7 |
| B5 | 1.8 |
| B6 | 3.9 |

Biological target: T14, M7
T14 construct: also called PD1 mutant M7
Assay: scFv-phage ELISA

| Binder | OD490 |
| --- | --- |
| B2 | 2.5 |
| B1 | 0.3 |
| B3 | 3.8 |
| B4 | 3.6 |
| B5 | 3.5 |
| B6 | 3.9 |

Biological target: T15, M7-1
T15 construct: also called PD1 mutant M7-1
Assay: scFv-phage ELISA

| Binder | OD490 |
| --- | --- |
| B2 | 2.8 |
| B1 | 0.4 |
| B3 | 3.9 |
| B4 | 3.7 |
| B5 | 3.5 |
| B6 | 3.9 |

Biological target: T16, M7-2
T16 construct: also called PD1 mutant M7-2
Assay: scFv-phage ELISA

| Binder | OD490 |
| --- | --- |
| B2 | 2.7 |
| B1 | 0.4 |
| B3 | 3.9 |
| B4 | 3.7 |
| B5 | 3.4 |
| B6 | 3.9 |

Biological target: T17, M8
T17 construct: also called PD1 mutant M8
Assay: scFv-phage ELISA

| Binder | OD490 |
| --- | --- |
| B2 | 2.1 |
| B1 | 1.7 |
| B3 | 3.9 |
| B4 | 3.5 |
| B5 | 3.6 |
| B6 | 4 |

Biological target: T18, M9
T18 construct: also called PD1 mutant M9
Assay: scFv-phage ELISA

| Binder | OD490 |
| --- | --- |
| B2 | 3.4 |
| B1 | 3.9 |
| B3 | 3.8 |
| B4 | 3.7 |
| B5 | 3.3 |
| B6 | 3.9 |

Biological target: T19, M10
T19 construct: also called PD1 mutant M10
Assay: scFv-phage ELISA

| Binder | OD490 |
| --- | --- |
| B2 | 3.1 |
| B1 | 3.8 |
| B3 | 3.9 |
| B4 | 3.7 |
| B5 | 3.3 |
| B6 | 3.9 |

Biological target: T20, ITGA6-Fc
T20 construct: Fc fusion
T20 sequence (P23229 whole entry, species assumed, looked up): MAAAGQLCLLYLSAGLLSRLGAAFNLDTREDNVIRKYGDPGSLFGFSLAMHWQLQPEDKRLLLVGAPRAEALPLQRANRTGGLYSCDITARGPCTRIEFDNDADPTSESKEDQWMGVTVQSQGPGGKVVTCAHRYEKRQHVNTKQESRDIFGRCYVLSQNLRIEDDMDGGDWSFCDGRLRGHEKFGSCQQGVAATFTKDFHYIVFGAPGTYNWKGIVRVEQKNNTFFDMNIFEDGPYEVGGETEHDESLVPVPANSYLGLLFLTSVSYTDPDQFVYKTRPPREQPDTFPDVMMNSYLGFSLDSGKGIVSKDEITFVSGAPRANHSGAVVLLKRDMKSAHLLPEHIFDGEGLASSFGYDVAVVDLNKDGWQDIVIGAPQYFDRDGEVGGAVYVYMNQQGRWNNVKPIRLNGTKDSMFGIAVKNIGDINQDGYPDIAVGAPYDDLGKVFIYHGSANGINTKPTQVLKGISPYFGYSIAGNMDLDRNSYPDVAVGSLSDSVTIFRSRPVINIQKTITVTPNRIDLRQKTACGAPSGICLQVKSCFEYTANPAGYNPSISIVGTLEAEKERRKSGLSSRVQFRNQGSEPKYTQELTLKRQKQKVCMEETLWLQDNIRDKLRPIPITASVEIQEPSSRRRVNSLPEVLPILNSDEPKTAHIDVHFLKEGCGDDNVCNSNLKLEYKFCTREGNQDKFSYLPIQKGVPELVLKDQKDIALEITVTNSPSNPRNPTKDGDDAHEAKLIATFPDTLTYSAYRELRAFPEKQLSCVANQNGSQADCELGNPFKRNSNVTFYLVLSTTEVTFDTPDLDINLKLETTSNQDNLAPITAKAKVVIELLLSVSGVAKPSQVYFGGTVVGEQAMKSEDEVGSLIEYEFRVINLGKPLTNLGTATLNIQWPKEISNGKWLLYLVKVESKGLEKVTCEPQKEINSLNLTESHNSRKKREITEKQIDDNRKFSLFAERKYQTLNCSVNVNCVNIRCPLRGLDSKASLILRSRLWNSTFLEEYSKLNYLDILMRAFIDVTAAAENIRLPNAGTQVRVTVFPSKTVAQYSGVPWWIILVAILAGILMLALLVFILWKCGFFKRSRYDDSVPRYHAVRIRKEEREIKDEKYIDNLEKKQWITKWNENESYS
Assay: scFv-phage ELISA

| Binder | OD490 |
| --- | --- |
| B2 | 0.4 |
| B1 | 0.3 |
| B3 | 0.1 |
| B4 | 0.3 |
| B5 | 0.1 |
| B6 | 0.3 |

Biological target: T21, M1
T21 construct: also called PD1 mutant M1
Assay: scFv-phage ELISA

| Binder | OD490 |
| --- | --- |
| B2 | 1.8 |
| B1 | 3.7 |
| B3 | 3.9 |
| B4 | 3.8 |
| B5 | 2.6 |
| B6 | 3.9 |

Biological target: T22, M1-1
T22 construct: also called PD1 mutant M1-1
Assay: scFv-phage ELISA

| Binder | OD490 |
| --- | --- |
| B2 | 2.9 |
| B1 | 3.8 |
| B3 | 3.9 |
| B4 | 3.6 |
| B5 | 2.5 |
| B6 | 3.8 |

Biological target: T23, M1-2
T23 construct: also called PD1 mutant M1-2
Assay: scFv-phage ELISA

| Binder | OD490 |
| --- | --- |
| B2 | 0.6 |
| B1 | 3.9 |
| B3 | 3.9 |
| B4 | 0.3 |
| B5 | 3.6 |
| B6 | 3.9 |

Biological target: T24, antigen PD1 (coated, construct not stated) (UniProt Q15116 25-170, limits assumed)
T24 construct: also called PD1 antigen; PDCD1
Assay: scFv-phage ELISA

T24 sequence (Q15116 25-170 limits assumed): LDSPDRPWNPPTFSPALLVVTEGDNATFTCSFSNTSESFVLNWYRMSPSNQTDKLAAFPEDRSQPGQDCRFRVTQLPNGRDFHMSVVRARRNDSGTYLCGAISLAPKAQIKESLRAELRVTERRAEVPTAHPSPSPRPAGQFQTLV

| Binder | OD490 |
| --- | --- |
| B2 | 2.8 |
| B1 | 2.1 |
| B3 | 4 |
| B4 | 3.8 |
| B5 | 3.8 |
| B6 | 3.9 |
